Source: paper doi:10.1101/2022.05.23.493104 (bioRxiv, 2022)

B1: P132L-mVenusHis (caveolin-1 P132L with C-terminal mVenus, E. coli expression) (natural protein, human)
chain: MSGGKYVDSEGHLYTVPIREQGNIYKPNNKAMADELSEKQVYDAHTKEIDLVNRDPKHLNDDVVKIDFEDVIAEPEGTHSFDGIWKASFTTFTVTKYWFYRLLSALFGIPMALIWGIYFAILSFLHIWAVVLCIKSFLIEIQCISRVYSIYVHTVCDPLFEAVGKIFSNVRINLQKEI
B2: P132L-His (caveolin-1 P132L, E. coli expression) (natural protein, human)
chain: MSGGKYVDSEGHLYTVPIREQGNIYKPNNKAMADELSEKQVYDAHTKEIDLVNRDPKHLNDDVVKIDFEDVIAEPEGTHSFDGIWKASFTTFTVTKYWFYRLLSALFGIPMALIWGIYFAILSFLHIWAVVLCIKSFLIEIQCISRVYSIYVHTVCDPLFEAVGKIFSNVRINLQKEI

Experiments:
[1] = target: T1, CAV1-His (wild type caveolin-1, E. coli expression) (human, UniProt Q03135 1-178); assay: negative stain electron microscopy
T1 sequence: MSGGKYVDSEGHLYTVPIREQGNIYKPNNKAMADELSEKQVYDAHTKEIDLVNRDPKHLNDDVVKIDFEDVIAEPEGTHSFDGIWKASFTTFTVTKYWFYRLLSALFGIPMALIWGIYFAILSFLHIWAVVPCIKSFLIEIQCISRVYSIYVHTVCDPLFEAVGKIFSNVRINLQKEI

[2] = target: the molecule itself; assay: negative stain electron microscopy

| Binder | binding result [1] | binding result [2] |
| --- | --- | --- |
| B1 | binds | binds |
| B2 | – | binds |
